Data set [1] can be described thus: Pharmacokinetic profile of CNP-38 after subcutaneous single-dose administration to cynomolgus monkeys. To be noted: single s.c. 40 μg/kg.
Description: This study was performed in order to test the pharmacokinetics of CNP-38 after subcutaneous (s.c.) administration in cynomolgus monkeys. Three male monkeys (2-4 years old, 3-5 kg) received a single s.c. injection at a dose of 40 μg/kg of CNP-38.
Method: Plasma levels of CNP were analysed using a commercially available competitive radioimmuno-assay (RK-012-03, Phoenix Pharmaceuticals, CA). The assay was applied essentially as described by the manufacturer.
A few changes to the supplied assay protocol were made. These changes included using in-house CNP calibrant and QC samples to secure consistency between assay runs.
The subject of data set [2] is Male Crl:CD1(ICR) mice. As to the kind of experiment: Evaluation of cardiovascular effects in the conscious telemetered mouse (subcutaneous administration). It is filed as in vivo. To be noted: 800 μg CNP-38 (eq)/kg subcutaneous; for change in MAP at the 5, 15, and 30 min post dose sampling time points (in words): compared to predose. As for the experimental part:
Male Crl:CD1(ICR) mice (age range 8-13 weeks and body weight range 27.3-35.6 g at start of dosing) were surgically implanted with a TA11PA-C10 telemetry transmitter (Data Sciences International (DSI)) in the carotid artery. The body of the transmitter was placed subcutaneously in the lateral flank of the mouse. The mice were dosed subcutaneously in a latin square crossover design with at least 72 hours between dosing occasions. […] At least four mice were included at each dose level. […] Each time point was presented as the average value of five minute's recording prior to the time point. The monitoring period was selected to cover exposure to the test items both prior to and after Tmax.

In data set [3] the test system is healthy volunteers. To be noted: Phase 1 study; cited from earlier work.
For data set [4] the following is noted: after iv administration; cited from earlier work.
Data set [5] has as its system healthy volunteers. The conditions noted are these: CNP injection; cited from earlier work.
For data set [6], the target named is T1, recombinant human NEP (Homo sapiens, UniProt P08473).
T1 construct: purchased Enzo Life Sciences GmbH, Lörrach, Germany
Put plainly: Digest of CNP variants by Neutral Endopeptidase in vitro. It is filed as in vitro ADME. The conditions noted are these: 100 μg CNP equivalents/mL, pH 7.4, 37° C., up to 4 days, normalized to mean CNP-34 or CNP-38 half life. The text has this: Samples were taken at different time intervals. […] The resulting reaction products were assigned using HPLC-MS.

A short description of data set [7]: Pharmacokinetic study of permanent conjugate 12 g in cynomolgus monkeys. It counts as in vivo. As for the experimental part:
As internal standard deuterated CNP-38 peptide was used.
After 4 hours incubation at 37° C. […] The eluates were transferred into vials. 10 μL were injected into the UPLC-MS system.

The conditions of data set [8]: cynomolgus monkey, in vivo, sc.
Data set [9] can be described thus: Pharmacokinetic study of transient conjugates 10f and 11i in cynomolgus monkeys. The conditions noted are these: single subcutaneous, 0.146 mg CNP-38 eq/kg.
Data set [10] in a line: Pharmacokinetic profile of conjugate 11i after subcutaneous single-dose administration to cynomolgus monkeys. The conditions noted are these: single s.c. 40 μg CNP-38 eq/kg. As for the experimental part:
As internal standard deuterated CNP-38 conjugate was used.
200 μL of the supernatant were transferred into a new well-plate and evaporated to dryness (under a gentle nitrogen stream at 35° C.). […] After 3 hours incubation at 37° C. […] 10 μL were injected into the UHPLC-MS system.

Where two headings read alike, the source gives them in different places. Bridge positions count the residues as written; N and C are the ends. Side chains are listed from the residue outwards. Ends that are not written are not given here. reversible linker = not defined here

T1 sequence (P08473 whole entry): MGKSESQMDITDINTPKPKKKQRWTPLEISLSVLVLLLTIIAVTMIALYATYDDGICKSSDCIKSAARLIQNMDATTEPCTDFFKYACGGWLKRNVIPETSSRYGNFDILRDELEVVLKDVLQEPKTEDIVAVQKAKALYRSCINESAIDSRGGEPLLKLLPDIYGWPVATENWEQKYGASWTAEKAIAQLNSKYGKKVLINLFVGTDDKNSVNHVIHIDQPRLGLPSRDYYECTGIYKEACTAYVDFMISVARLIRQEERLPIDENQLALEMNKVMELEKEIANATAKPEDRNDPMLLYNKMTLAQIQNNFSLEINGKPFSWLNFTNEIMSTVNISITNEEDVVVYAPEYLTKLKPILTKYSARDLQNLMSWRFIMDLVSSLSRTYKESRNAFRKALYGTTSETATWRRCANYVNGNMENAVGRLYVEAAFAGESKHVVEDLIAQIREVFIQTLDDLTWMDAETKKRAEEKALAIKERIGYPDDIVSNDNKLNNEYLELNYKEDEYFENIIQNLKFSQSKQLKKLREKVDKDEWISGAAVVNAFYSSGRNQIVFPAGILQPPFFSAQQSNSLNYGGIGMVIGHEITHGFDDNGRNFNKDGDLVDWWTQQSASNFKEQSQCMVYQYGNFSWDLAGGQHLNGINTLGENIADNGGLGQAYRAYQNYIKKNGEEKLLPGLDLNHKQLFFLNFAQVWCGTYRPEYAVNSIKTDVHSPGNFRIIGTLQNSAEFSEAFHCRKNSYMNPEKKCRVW

For `CC[C@H](C)[C@@H]1NC(=O)[C@H](CCCNC(=N)N)NC(=O)[C@H](CC(=O)O)NC(=O)[C@H](CC(C)C)NC(=O)[C@H](CCCCN)NC(=O)[C@H](CC(C)C)NC(=O)CNC(=O)[C@H](Cc2ccccc2)NC(=O)[C@@H](NC(=O)CNC(=O)[C@H](CCCCN)NC(=O)[C@H](CO)NC(=O)[C@H](CC(C)C)NC(=O)CNC(=O)[C@H](CCCCN)NC(=O)[C@H](CCCCN)NC(=O)[C@H](CC(N)=O)NC(=O)[C@H](C)NC(=O)CNC(=O)[C@H](CCCCN)NC(=O)[C@H](Cc2ccc(O)cc2)NC(=O)[C@H](CCCCN)NC(=O)[C@H](CCCNC(=N)N)NC(=O)[C@H](C)NC(=O)[C@H](CC(N)=O)NC(=O)[C@@H]2CCCN2C(=O)[C@H](Cc2c[nH]cn2)NC(=O)[C@H](CCC(=O)O)NC(=O)[C@H](CCC(N)=O)NC(=O)[C@@H](N)CC(C)C)CSSC[C@@H](C(=O)O)NC(=O)CNC(=O)[C@H](CC(C)C)NC(=O)CNC(=O)[C@H](CO)NC(=O)[C@H](CCSC)NC(=O)[C@H](CO)NC(=O)CNC1=O` [CNP-38, reference compound], the tolerability result in data set [1] is on record as “well tolerated”. Besides, in data set [2], the “HR (heart rate)” value is “not impacted”, the “MAP 5 min post dose (mean ± SD)” value is reported as 102.0 ± 7.5 mmHg, the “MAP 15 min post dose (mean ± SD)” value came to 89.5 ± 29.4 mmHg and the “MAP 30 min post dose (mean ± SD)” value stood at 99.5 ± 25.2 mmHg. Further, the “change in MAP at the 5, 15, and 30 min post dose sampling time points (in words)” value in data set [2] is listed as “significant decrease in MAP”. Further, the “MAP predose (mean ± SD)” value in data set [2] (predose) is given as 106.8 ± 13.4 mmHg.

Turning to “BMN-111: a CNP variant with increased NEP resistance in development for the treatment of achondroplasia (PGQEHPNARKYKGANKKGLSKGCFGLKLDRIGSMSGLGC; disulfide 23-39; chains of the INN, looked up)”, the haemodynamic effect result in [3] was “mild hypotension”.

“CNP: C-type natriuretic peptide as named in the background section”: the half-life (commonly the time in which the quantity being followed falls by half) in [4] is on record as 2 min. The “effect on blood pressure and heart rate” value in [5] was “transient but significant decrease in both systolic and diastolic blood pressure with a significant increase in heart rate”.

“Permanent Lys16 CNP-34 PEG 5 kDa Conjugate (PNARKYKGANKKGLSK(PEG 5 kDa)GCFGLKLDRIGSMSGLGC; cysteine pairing not given here; UniProt P23582 93-126, looked up, fragment) [Compound 17e]”: the half life norm. in [6] is on record as 54.23 h.

Turning to “Permanent Lys22 CNP-34 PEG 5 kDa Conjugate [Compound 18e]”, the half life norm. in data set [6] amounted to 38.87 h.

On to “Permanent Lys26 CNP-38 PEG4×10 kDa Conjugate [Compound 12g]”, for which the half life norm. entry in [6] is reported as “Almost no proteolysis”. Besides, in [7] (cynomolgus monkey, in vivo), the bioavailability entry was “ca. 50%” and the dose site reactions entry is recorded as “No dose site reactions were observed”. The “half life time of CNP-38 content” value in data set [7] (cynomolgus monkey, in vivo, iv) is “approx. 24 h”. Besides, the “tolerability of dose administrations” value in data set [7] (single intravenous or subcutaneous, 0.146 mg CNP-38 eq/kg) is “well tolerated”.

As to “Permanent Lys26 CNP-38 PEG 5 kDa Conjugate (LQEHPNARKYKGANKKGLSKGCFGLK(PEG 5 kDa)LDRIGSMSGLGC; cysteine pairing not given here; UniProt P23582 89-126, looked up, fragment) [Compound 19e]”, in [6], the half life norm. worked out at 62.76 h.

“Permanent N-Terminal CNP-38 PEG 5 kDa Conjugate ({PEG 5 kDa}-LQEHPNARKYKGANKKGLSKGCFGLKLDRIGSMSGLGC; disulfide 22-38; also: permanent PEG attachment; UniProt P23582 89-126, looked up, fragment) [Compound 15e]”: the half life norm. result in data set [6] is “Almost no proteolysis”.

For “Reversible Lys26 CNP-38 PEG2×20 kDa Conjugate (LQEHPNARKYKGANKKGLSKGCFGLKLDRIGSMSGLGC; not fully specified (residue 26); ends and bridges not checked; also: reversible linker structure not given here; UniProt P23582 89-126, looked up, fragment) [Compound 10f]”, the dose site reactions result in data set [8] is on record as “No dose site reactions were observed”. The “tolerability of dose administrations” value in data set [9] is given as “well tolerated”.

Take “Reversible Lys26 CNP-38 PEG4×10 kDa Conjugate (LQEHPNARKYKGANKKGLSKGCFGLK([reversible linker-PEG 4×10 kDa])LDRIGSMSGLGC; ends and bridges not checked; also: reversible linker structure not given here; UniProt P23582 89-126, looked up, fragment) [Compound 11i]”: in [2], the “HR (heart rate)” value is “not impacted”, the “MAP 5 min post dose (mean ± SD)” value stood at 122.8 ± 5.9 mmHg, the “MAP 15 min post dose (mean ± SD)” value is recorded as 121.5 ± 7.5 mmHg and the “MAP 30 min post dose (mean ± SD)” value came out at 111.5 ± 13.7 mmHg. For the same compound, in data set [2], the “blood pressure (conclusion)” value is listed as “did not decrease blood pressure”; the “change in MAP at the 5, 15, and 30 min post dose sampling time points (in words)” value is given as “same physiological increase in MAP”. In addition, in data set [8], the dose site reactions entry is on record as “No dose site reactions were observed” and the terminal half life was in the range of 72 to 96 h. Further, the “tolerability of dose administrations” value in data set [9] is “well tolerated”. Further, the tolerability entry in data set [10] was “well tolerated”.

These data come from patent US20220211817A1, “CONTROLLED-RELEASE CNP AGONISTS WITH LOW NPR-C BINDING” (ASCENDIS PHARMA GROWTH DISORDERS A/S, priority 2016, published 2022).
